Broadly, the Kd is the equilibrium constant for the complex coming apart. What is called koff is the first-order rate constant of dissociation. As a reminder, the kon is the second-order rate constant of association. Higher therefore signals faster complex formation.

11 molecules from patent publication US20250066503A1, “CELL INJURY INDUCING THERAPEUTIC DRUG FOR USE IN CANCER THERAPY” (CHUGAI SEIYAKU KABUSHIKI KAISHA, priority 2016, published 2025) can be followed below.

Substitutions are numbered along the chain they refer to. In names and notes the source's numbering stands.

Test [1] deals with T1, soluble human CD3 epsilon chain (human, UniProt P07766 23-126).
T1 construct: also called CD3ε
The test is described as follows: SPR.

In test [2] the target is T2, human GPC3 (human, UniProt P51654 25-563).
T2 construct: range 25-563; soluble analyte; also called soluble human GPC3; glypican 3
The test is described as follows: SPR.

Test [3] has as its target T2, human GPC3. The test is described as follows: SPR, antibody captured by Protein A/G. How it is done: The activity to bind human GPC3 when using GL4 (SEQ ID NO: 41) and L0000 (SEQ ID NO: 53) as the L-chain variable regions was evaluated. This was performed using the molecular form of a single-arm antibody having a single Fab at the Fc region of a human IgG1 heterodimerized by the knobs-into-hole technique. H0000 (SEQ ID NO: 40) was used for the anti-GPC3 antibody H-chain variable region.
The affinity and binding rate constants of an anti-GPC3 antibody for an antigen were measured by the multi-cycle kinetics method of a surface plasmon resonance assay using Biacore™-T200 (GE Healthcare Japan). HBS-EP+(GE Healthcare Japan) was used for the running buffer, and an amine coupling kit (GE Healthcare Japan) was used to covalently bind Protein A/G to the CM5 chip (carboxymethyl dextran-coated chip). […] Measurements were carried out by first allowing Protein A/G to capture the antibody solution, and then injecting the human GPC3 solution at a flow rate of […] for three minutes to allow reaction to take place. Then, the solution was switched to HBS-EP+ and the dissociation phase was measured for 15 minutes. After completion of the dissociation phase measurement, the sensor chip was regenerated by washing with 10 mM Gly-HCl at pH 1.5. Measurement at the concentration of 0 was similarly carried out by allowing Protein A/G to capture the antibody solution, performing a three-minute HBS-EP+ injection to allow reaction to take place, and then switching to HBS-EP+ to measure the dissociation phase for 15 minutes. After completion of the dissociation phase measurement, the sensor chip was regenerated by washing with 10 mM Gly-HCl at pH 1.5. A data analysis software exclusively for Biacore, Biacore T200 Evaluation Software Version 1.0, was used to perform kinetic analyses to calculate the binding rate constant (ka), dissociation rate constant (kd), and the rate constant ratio from the obtained sensorgrams.

T1 sequence (P07766 23-126 limits assumed): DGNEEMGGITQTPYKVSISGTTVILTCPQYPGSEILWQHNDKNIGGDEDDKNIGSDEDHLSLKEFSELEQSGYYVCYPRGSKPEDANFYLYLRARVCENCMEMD
T2 sequence (P51654 25-563 limits assumed): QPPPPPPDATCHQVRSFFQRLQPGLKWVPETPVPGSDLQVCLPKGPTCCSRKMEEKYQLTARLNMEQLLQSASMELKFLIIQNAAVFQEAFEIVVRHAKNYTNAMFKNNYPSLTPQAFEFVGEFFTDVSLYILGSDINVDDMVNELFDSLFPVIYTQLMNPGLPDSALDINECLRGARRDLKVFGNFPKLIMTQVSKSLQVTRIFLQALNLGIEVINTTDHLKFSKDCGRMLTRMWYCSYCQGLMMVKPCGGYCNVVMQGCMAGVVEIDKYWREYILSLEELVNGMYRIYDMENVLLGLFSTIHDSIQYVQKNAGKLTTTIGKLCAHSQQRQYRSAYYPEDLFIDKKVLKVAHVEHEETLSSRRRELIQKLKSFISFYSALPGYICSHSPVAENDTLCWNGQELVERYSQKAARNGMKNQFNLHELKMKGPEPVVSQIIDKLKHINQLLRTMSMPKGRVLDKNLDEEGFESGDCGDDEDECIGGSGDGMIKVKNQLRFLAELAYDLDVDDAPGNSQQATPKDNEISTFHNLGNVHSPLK

B1: TR01H015-E2702GsKsc/GCH019-E2704sEpsc/L0000-k0 (bispecific antibody, human IgG4 S228P, kappa, N297A)
heavy 1: QVQLVESGGGLVQPGRSLRLSCAASGFTFSNAWMHWVRQAPGKGLEWVAQIKGKSNNYATYYAESVKGRFTISRADSKNSIYLQMNSLKTEDTAVYYCRYVHYSASYGVDIWGQGTTVTVSSASTKGPSVFPLAPCSRSTSESTAALGCLVKDYFPEPVTVSWNSGALTSGVHTFPAVLQSSGLYSLSSVVTVPSSSLGTKTYTCNVDHKPSNTKVDKRVESKYGPPCPPCPAPEFRGGPKVFLFPPKPKDTLMISRTPEVTCVVVDVSQEDPEVQFNWYVDGVEVHNAKTKPREEQFASTYRVVSVLTVLHQDWLNGKEYKCKVSNKGLPSSIEKTISKAKGQPREPQVYTLPPSQKEMTKNQVSLTCLVKGFYPSDIAVEWESNGQPENNYKTTPPVLDSDGSFFLYSKLTVDKSRWQEGNVFSCSVMHEALHNRYTQKSLSLSP
heavy 2: QVQLVQSGAEVKKPGASVTVSCKASGYTFTDYEMHWIRQPPGEGLEWIGAIDGKTPDTAYEQKFKGRVTLTADKSTSTAYMELSSLTSEDTAVYYCTRFYSYTYWGQGTLVTVSSASTKGPSVFPLAPCSRSTSESTAALGCLVKDYFPEPVTVSWNSGALTSGVHTFPAVLQSSGLYSLSSVVTVPSSSLGTQTYTCNVDHKPSNTKVDKRVESKYGPPCPPCPAPEFRGGPKVFLFPPKPKDTLMISRTPEVTCVVVDVSQEDPEVQFNWYVDGVEVHNAKTKPREEQFASTYRVVSVLTVLHQDWLNGKEYKCKVSNKGLPSSIEKTISKAKGQPREPQVYTLPPSQEEMTKNQVSLTCLVKGFYPSDIAVEWESNGQPENNYKTTPPVLDSDGSFFLYSKLTVDKSRWQEGNVFSCSVMHEALHNHYTQESLSLSP
light: DIVMTQSPLSLPVTPGEPASISCRSSQSLVHSNRNTYLHWYQQKPGQAPRLLIYKVSNRFSGVPDRFSGSGSGTDFTLKISRVEAEDVGVYYCGQGTQVPYTFGQGTKLEIKRTVAAPSVFIFPPSDEQLKSGTASVVCLLNNFYPREAKVQWKVDNALQSGNSQESVTEQDSKDSTYSLSSTLTLSKADYEKHKVYACEVTHQGLSSPVTKSFNRGEC
notes: common L chain format
As to B1, the dissociation constant Kd in test [1] worked out at 29.6 nM; in the test with human GPC3 [2], 1.64 nM.

B2: CE115HA251-E22Hh/L0000-k0/GL4-E22Hk/H0610-E22L (bispecific antibody, human IgG1, kappa, L234A L235A, N297A)
heavy: QVQLVESGGGVVQPGRSLRLSCAASGFTFSNAWMHWVRQAPGKGLEWVAQIKAKSNNYATYYAESVKGRFTISRDDSKNSLYLQMNSLKTEDTAVYYCRYVHYYYYYGVDAWGQGTTVTVSSASTKGPSVFPLAPSSKSTSGGTAALGCLVKDYFPEPVTVSWNSGALTSGVHTFPAVLQSSGLYSLSSVVTVPSSSLGTQTYICNVNHKPSNTKVDKKVEPKSCDKTHTCPPCPAPEAAGGPSVFLFPPKPKDTLMISRTPEVTCVVVDVSHEDPEVKFNWYVDGVEVHNAKTKPREEQYASTYRVVSVLTVLHQDWLNGKEYKCKVSNKALPAPIEKTISKAKGQPREPQVYTLPPSRCELTKNQVSLSCAVKGFYPSDIAVEWESNGQPENNYKTTPPVLDSDGSFFLVSKLTVDKSRWQQGNVFSCSVMHEALHNHYTQKSLSLSPDYKDDDDK
light: B1 light
chain 1: DIVMTQSPLSLPVTPGEPASISCRSSQSLVHSNRNTYLHWYQQKPGQAPRLLIYKVSNRFSGVPDRFSGSGSGTDFTLKISRVEAEDVGVYYCSQNTHVPPTFGQGTKLEIKSSASTKGPSVFPLAPSSKSTSGGTAALGCLVKDYFPEPVTVSWNSGALTSGVHTFPAVLQSSGLYSLSSVVTVPSSSLGTQTYICNVNHKPSNTKVDKKVEPKSCDKTHTCPPCPAPEAAGGPSVFLFPPKPKDTLMISRTPEVTCVVVDVSHEDPEVKFNWYVDGVEVHNAKTKPREEQYASTYRVVSVLTVLHQDWLNGKEYKCKVSNKALPAPIEKTISKAKGQPREPQVCTLPPSRDELTKNQVSLWCLVKGFYPSDIAVEWESNGQPENNYKTTPPVLDSDGSFFLYSKLTVDKSRWQQGNVFSCSVMHEALHNHYTQKSLSLSPHHHHHHHH
chain 2: QVQLVQSGAEVKKPGASVKVSCKASGYTFTDYEMHWIRQPPGQGLEWIGAIDGKTPDTAYSQKFKGRVTLTADKSTSTAYMELSSLTSEDTAVYYCTRFYSYTYWGQGTLVTVSSASVAAPSVFIFPPSDEQLKSGTASVVCLLNNFYPREAKVQWKVDNALQSGNSQESVTEQDSKDSTYSLSSTLTLSKADYEKHKVYACEVTHQGLSSPVTKSFNRGEC
notes: ERY22 format
As for B2, the Kd in test [1] came out at 13.7 nM; with human GPC3 [2], 0.236 nM.

B3: GPC3_ERY27 (hCE115HA-E22Hh/L0000-k0/GL4-E22Hk/H0000-E22L) (bispecific antibody, human IgG1, kappa, L234A L235A, N297A)
heavy: B2 heavy with Y104G, Y105A
light: B1 light
chain 1: B2 chain 1
chain 2: B2 chain 2 with G53P, P56G
notes: ERY22 format
For the molecule B3, the results for the dissociation constant Kd (in test [1]; with human GPC3 [2]) were 61.6 nM and 4.28 nM, respectively.

B4: CE115HA236-E22Hh/GLS3108-k0/GL4-E22Hk/H0610-E22L (bispecific antibody, human IgG1, kappa, L234A L235A, N297A)
heavy: B2 heavy with Y105A, D110Q
light: B1 light with H39S
chain 1: B2 chain 1
chain 2: B2 chain 2
notes: ERY22 format
In the case of B4, the equilibrium dissociation constant (Kd) came to 6.08 nM in test [1] and 0.267 nM with human GPC3 [2].

B5: TR01H015-E22Hh/L0000-k0/GL4-E22Hk/H0610-E22L (bispecific antibody, human IgG1, kappa, L234A L235A, N297A)
heavy: B2 heavy with V11L, A53G, D75A, L81I, Y104S, Y105A, Y106S, A111I
light: B1 light
chain 1: B2 chain 1
chain 2: B2 chain 2
notes: ERY22 format
For B5, the Kd in test [1] came to 35.7 nM; in the test with human GPC3 [2], 0.263 nM.

B6: TR01H002-E22Hh/GLS3108-k0/GL4-E22Hk/H0610-E22L (bispecific antibody, human IgG1, kappa, L234A L235A, N297A)
heavy: B2 heavy with A59K, T60K, D110Q
light: B1 light with H39S
chain 1: B2 chain 1
chain 2: B2 chain 2
notes: ERY22 format
For B6, the Kd in test [1] was 2.04 nM; with human GPC3 [2] it was 0.475 nM.

B7: H0000/GL4 single-arm antibody (antibody, human IgG1, V domains shown)
VH: QVQLVQSGAEVKKPGASVKVSCKASGYTFTDYEMHWIRQPPGQGLEWIGAIDPKTGDTAYSQKFKGRVTLTADKSTSTAYMELSSLTSEDTAVYYCTRFYSYTYWGQGTLVTVSS
VL: DIVMTQSPLSLPVTPGEPASISCRSSQSLVHSNRNTYLHWYQQKPGQAPRLLIYKVSNRFSGVPDRFSGSGSGTDFTLKISRVEAEDVGVYYCSQNTHVPPTFGQGTKLEIK
notes: single Fab on human IgG1 Fc heterodimerized by knobs-into-hole
In the test with human GPC3 [3], B7 showed a Kd of 4.2 nM, a koff of 0.0018 s⁻¹ and an on-rate (kon) of 430000 M⁻¹ s⁻¹.

B8: H0610-G1dh/none-Hi-Kn010G3/L0000vk1-k0 (antibody, V domains shown)
VH: B7 VH with P53G, G56P
VL: DIQMTQSPSSLSASVGDRVTITCRSSQSLVHSNRNTYLHWYQQKPGKAPKLLIYKVSNRFSGVPSRFSGSGSGTDFTFTISSLQPEDIATYYCGQGTQVPYTFGQGTKVEIK
notes: one-arm
B8 returned a Kd with human GPC3 [2] of 2.16 nM.

B9: H0610-G1dh/none-Hi-Kn010G3/L0212-k0 (antibody, V domains shown)
VH: B7 VH with P53G, G56P
VL: DIVMTQSPLSLPVTPGEPASISCRPSQSPVHSNRNTYLHWYQQKPGQAPRLLIYKVSNRFSGVPDRFSGSGSGTDFTLKISRVEAEDVGVYYCYQGTQVPYTFGQGTKLEIKR
notes: one-arm
The molecule B9 returned a Kd with human GPC3 [2] of 0.994 nM.

B10: H0610-G1dh/none-Hi-Kn010G3/L0222-k0 (antibody, V domains shown)
VH: B7 VH with P53G, G56P
VL: B9 VL with P25S, L38I, H39Q
notes: one-arm
For B10, the dissociation constant (Kd) with human GPC3 [2] is 0.00014 nM.

B11: H0000/L0000 single-arm antibody (antibody, human IgG1, V domains shown)
VH: B7 VH
VL: B7 VL with S94G, N96G, H98Q, P101Y
notes: as for B7
On to B11, for which, in the test with human GPC3 [3], the Kd turned out to be 36 nM, the koff worked out at 0.011 s⁻¹ and the association rate constant (kon) is 300000 M⁻¹ s⁻¹.
